Measured values: publication PMC11373591

Tests used:
[1] = molecular target: CD8 binding–deficient HLA.A2 (DT227/228KA) refolded with the 9V NY-ESO-1 peptide (A2^ΔCD8/9V)
[2] = molecular target: HLA.A2-H12 / beta-2-microglobulin refolded with the 9V NY-ESO-1 peptide (A2/9V)
[3] = molecular target: HLA.A2-H12 / beta-2-microglobulin refolded with the 9V NY-ESO-1 peptide (A2/9V); remark: listed apart in the source

Row | Substance | EC50: antigen density on the SLB at half-maximum T cell activation (Fura-2 calcium response); receptor by CRISPR-Cas9 knock-in (antigen molecules per μm^2) [1] | EC50: antigen density on the SLB at half-maximum T cell activation (Fura-2 calcium response); receptor by CRISPR-Cas9 knock-in (antigen molecules per μm^2) [2] | specific lysis of HLA.A2-expressing K562 cells pulsed with 0.1 nM 9V peptide after 6, 8 and 24 hours of coculture at 1:1 (luciferase); 1G4 by CRISPR-Cas9 [3] [% killing]
1 | c58c61 1G4hi TCR | 0.0736 | 0.04 | –
2 | 1G4 TCR | 0.0181 | 0.00703 | 65
